Two molecules from article PMC4902918, “Production in Pichia pastoris of complementary protein-based polymers with heterodimer-forming WW and PPxY domains” (Microbial Cell Factories, 2016) can be followed below.

No end group written: not given here. C4^P polymer block = not defined here; O‑glycan = not defined here

One may read the Kd as the concentration at which binding is half-saturated. A lower Kd goes with higher affinity. The term stoichiometry N denotes a count of units in the complex or per binding partner.

The target of assay [1] is T1, C4^P-D^WW protein polymer (C4^P polymer with a C-terminal WW domain WWP1-1) (human). The assay can be described thus: ITC; MicroCal VP-ITC, 25 °C, 10 mM sodium phosphate pH 7; 200 uM C4^P-D^WW (1.4 mL) in the cell, 2.9 mM ligand in the syringe, 63 injections of 4 uL; triplicate, Kd values averaged. As to conditions: both partners purified.
T1 sequence (chain, as listed by the source): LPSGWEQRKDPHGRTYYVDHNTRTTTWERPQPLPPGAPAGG
The target in assay [2] is T1, C4^P-D^WW protein polymer (C4^P polymer …). The assay can be described thus: other fluorescence titration; steady-state tryptophan fluorescence (excitation 295 nm, emission 340 nm); 500 uL of 10 uM C4^P-D^WW in the cuvette, 500 uM ligand added stepwise up to ~24 uM; 10 mM sodium phosphate pH 7, RT; triplicate, fit on averaged data. As to conditions: both partners purified.

As to {C4^P polymer block}-EYPPYPPPPYPAGPAGG (other, reading uncertain; also: nonglycosylated) [C4^P-D^PPxY* protein polymer (Ser12 to Ala mutant of the PPxY module, nonglycosylated)], in assay [1], the dissociation constant (Kd) worked out at 9.2 µM and the “stoichiometry N” value is around 0.9. Also, the Kd in assay [2] is 2.7 µM.

B1: C4^P-D^PPxY protein polymer (C4^P polymer with a C-terminal PPxY proline-rich ligand), O-glycosylated (other)
chain: {C4^P polymer block}-EYPPYPPPPYPS(O‑glycan)GPAGG
modifications: reading uncertain; also: O-glycans heterogeneous, tentatively Man3 to Man7, mostly phosphorylated in diester linkage, minor fraction nonglycosylated
As to B1, in assay [1], the Kd turned out to be 9.3 µM and the “stoichiometry N” value is around 0.9. In assay [2], this molecule returned a Kd of 2.5 µM.
